Assay results reported in IntAct's records for PubMed 19855379.

B1: Protein phosphatase 2C 56 (Arabidopsis thaliana (Mouse-ear cress)), P49597 (parent)
chain: MEEVSPAIAGPFRPFSETQMDFTGIRLGKGYCNNQYSNQDSENGDLMVSLPETSSCSVSGSHGSESRKVLISRINSPNLNMKESAAADIVVVDISAGDEINGSDITSEKKMISRTESRSLFEFKSVPLYGFTSICGRRPEMEDAVSTIPRFLQSSSGSMLDGRFDPQSAAHFFGVYDGHGGSQVANYCRERMHLALAEEIAKEKPMLCDGDTWLEKWKKALFNSFLRVDSEIESVAPETVGSTSVVAVVFPSHIFVANCGDSRAVLCRGKTALPLSVDHKPDREDEAARIEAAGGKVIQWNGARVFGVLAMSRSIGDRYLKPSIIPDPEVTAVKRVKEDDCLILASDGVWDVMTDEEACEMARKRILLWHKKNAVAGDASLLADERRKEGKDPAAMSAAEYLSKLAIQRGSKDNISVVVVDLKPRRKLKSKPLN
B2: Abscisic acid receptor PYL1 (Arabidopsis thaliana (Mouse-ear cress)), Q8VZS8 (parent)
chain: MANSESSSSPVNEEENSQRISTLHHQTMPSDLTQDEFTQLSQSIAEFHTYQLGNGRCSSLLAQRIHAPPETVWSVVRRFDRPQIYKHFIKSCNVSEDFEMRVGCTRDVNVISGLPANTSRERLDLLDDDRRVTGFSITGGEHRLRNYKSVTTVHRFEKEEEEERIWTVVLESYVVDVPEGNSEEDTRLFADTVIRLNLQKLASITEAMNRNNNNNNSSQVR

Variants of: B1
Conditions: with pyl1_arath PYL1, Q8VZS8

effect of a mutation on the interaction	Variant
decreasing interaction	MEEVSPAIAGPFRPFSETQMDFTGIRLGKGYCNNQYSNQDSENGDLMVSLPETSSCSVSGSHGSESRKVLISRINSPNLNMKESAAADIVVVDISAGDEINGSDITSEKKMISRTESRSLFEFKSVPLYGFTSICGRRPEMADAVSTIPRFLQSSSGSMLDGRFDPQSAAHFFGVYDGHGGSQVANYCRERMHLALAEEIAKEKPMLCDGDTWLEKWKKALFNSFLRVDSEIESVAPETVGSTSVVAVVFPSHIFVANCGDSRAVLCRGKTALPLSVDHKPDREDEAARIEAAGGKVIQWNGARVFGVLAMSRSIGDRYLKPSIIPDPEVTAVKRVKEDDCLILASDGVWDVMTDEEACEMARKRILLWHKKNAVAGDASLLADERRKEGKDPAAMSAAEYLSKLAIQRGSKDNISVVVVDLKPRRKLKSKPLN [E142A]
disrupting interaction	MEEVSPAIAGPFRPFSETQMDFTGIRLGKGYCNNQYSNQDSENGDLMVSLPETSSCSVSGSHGSESRKVLISRINSPNLNMKESAAADIVVVDISAGDEINGSDITSEKKMISRTESRSLFEFKSVPLYGFTSICGRRPEMEDAVSTIPRFLQSSSGSMLDGRFDPQSAAHFFGVYDGHGGSQVANYCRERMHLALAEEIAKEKPMLCDGDTWLEKWKKALFNSFLRVDSEIESVAPETVGSTSVVAVVFPSHIFVANCGDSRAVLCRGKTALPLSVDHKPDREDEAARIEAAGGKVAQWNGARVFGVLAMSRSIGDRYLKPSIIPDPEVTAVKRVKEDDCLILASDGVWDVMTDEEACEMARKRILLWHKKNAVAGDASLLADERRKEGKDPAAMSAAEYLSKLAIQRGSKDNISVVVVDLKPRRKLKSKPLN [I298A]
disrupting interaction	MEEVSPAIAGPFRPFSETQMDFTGIRLGKGYCNNQYSNQDSENGDLMVSLPETSSCSVSGSHGSESRKVLISRINSPNLNMKESAAADIVVVDISAGDEINGSDITSEKKMISRTESRSLFEFKSVPLYGFTSICGRRPEMEDAVSTIPRFLQSSSGSMLDGRFDPQSAAHFFGVYDGHGGSQVANYCRERMHLALAEEIAKEKPMLCDGDTWLEKWKKALFNSFLRVDSEIESVAPETVGSTSVVAVVFPSHIFVANCGDSRAVLCRGKTALPLSVDHKPDREDEAARIEAAGGKVIQWNGAAVFGVLAMSRSIGDRYLKPSIIPDPEVTAVKRVKEDDCLILASDGVWDVMTDEEACEMARKRILLWHKKNAVAGDASLLADERRKEGKDPAAMSAAEYLSKLAIQRGSKDNISVVVVDLKPRRKLKSKPLN [R304A]
disrupting interaction	MEEVSPAIAGPFRPFSETQMDFTGIRLGKGYCNNQYSNQDSENGDLMVSLPETSSCSVSGSHGSESRKVLISRINSPNLNMKESAAADIVVVDISAGDEINGSDITSEKKMISRTESRSLFEFKSVPLYGFTSICGRRPEMEDAVSTIPRFLQSSSGSMLDGRFDPQSAAHFFGVYDGHGGSQVANYCRERMHLALAEEIAKEKPMLCDGDTWLEKWKKALFNSFLRVDSEIESVAPETVGSTSVVAVVFPSHIFVANCGDSRAVLCRGKTALPLSVDHKPDREDEAARIEAAGGKVIQANGARVFGVLAMSRSIGDRYLKPSIIPDPEVTAVKRVKEDDCLILASDGVWDVMTDEEACEMARKRILLWHKKNAVAGDASLLADERRKEGKDPAAMSAAEYLSKLAIQRGSKDNISVVVVDLKPRRKLKSKPLN [W300A]
decreasing interaction	MEEVSPAIAGPFRPFSETQMDFTGIRLGKGYCNNQYSNQDSENGDLMVSLPETSSCSVSGSHGSESRKVLISRINSPNLNMKESAAADIVVVDISAGDEINGSDITSEKKMISRTESRSLFEFKSVPLYGFTSICGRRPEMEDAVSTIPRFLQSSSGSMLDGRFDPQSAAHFFGVYDGHGGSQVANYCRERMHLALAEEIAKEKPMLCDGDTWLEKWKKALFNSFLRVDSEIESVAPETVGSTSVVAVVFPSHIFVANCGDSRAVLCRGKTALPLSVDHKPDREDEAARIEAAGGKVIQWNGARVFGVLAMSRSIGDRALKPSIIPDPEVTAVKRVKEDDCLILASDGVWDVMTDEEACEMARKRILLWHKKNAVAGDASLLADERRKEGKDPAAMSAAEYLSKLAIQRGSKDNISVVVVDLKPRRKLKSKPLN [Y319A]

Variants of: B2
Conditions: with ABI1, P49597

effect of a mutation on the interaction	Variant
decreasing interaction	MANSESSSSPVNEEENSQRISTLHHQTMPSDLTQDEFTQLSQSIAEFHTYQLGNGRCSSLLAQRIHAPPETVWSVVRRFDRPQIYKHFIKSCNVSEDFEMRVGCTRDVNVISGLPANTSRERLDLLDDDRRVTGFSITGGEHALRNYKSVTTVHRFEKEEEEERIWTVVLESYVVDVPEGNSEEDTRLFADTVIRLNLQKLASITEAMNRNNNNNNSSQVR [R143A]
disrupting interaction	MANSESSSSPVNEEENSQRISTLHHQTMPSDLTQDEFTQLSQSIAEFHTYQLGNGRCSSLLAQRIHAPPETVWSVVRRFDRPQIYKHFIKSCNVSEDFEMRVGCTRDVNVISGLPANTSRERLDLLDDDRRVTGFSITGGEARLRNYKSVTTVHRFEKEEEEERIWTVVLESYVVDVPEGNSEEDTRLFADTVIRLNLQKLASITEAMNRNNNNNNSSQVR [H142A]
disrupting interaction	MANSESSSSPVNEEENSQRISTLHHQTMPSDLTQDEFTQLSQSIAEFHTYQLGNGRCSSLLAQRIHAPPETVWSVVRRFDRPQIYKHFIKSCNVSEDFEMRVGCTRDVNVISGLPANTSRERLDLLDDDRRVTGFSITGGEHRARNYKSVTTVHRFEKEEEEERIWTVVLESYVVDVPEGNSEEDTRLFADTVIRLNLQKLASITEAMNRNNNNNNSSQVR [L144A]
decreasing interaction	MANSESSSSPVNEEENSQRISTLHHQTMPSDLTQDEFTQLSQSIAEFHTYQLGNGRCSSLLAQRIHAPPETVWSVVRRFDRPQIYKHFIKSCNVSEDFEMRVGCTRDVNVISGLPANTSRERLDLLDDDRRVTGFSITGGEHRLRNYKSVTTVHRFEKEEEEERIWTVVLESYVVDVPEGNSEEDTRLAADTVIRLNLQKLASITEAMNRNNNNNNSSQVR [F189A]
